Assay results reported in patent US11369662B2 (The Medical College of Wisconsin, Inc., priority 2014, dated 2022).
“Also recorded” adds a separate entry of the source.

Experiments:
CXCR4(Y12A) = target: T1, CXCR4(Y12A) (Homo sapiens, UniProt P61073, Y12A); experiment: Calcium flux in CHO-K1 cells, FLAG-tagged CXCR4(Y12A); type: cell-based; conditions: relative to wildtype CXCR4
T1 construct: expressed in transfected cells; host or cells: CHO-K1 stably expressing Galpha15 (transient)
Description: Cell culture. Chinese hamster ovary K1 (CHO-K1) cells, stably transfected with the Gα15 gene in pcDNA3.1+, were cultured in a 1:1 mixture of Dulbecco's modified Eagle medium (DMEM) with Glutamax (Gibco):F12 nutrient mixture (Gibco) supplemented with 10% (w/v) fetal bovine serum (FBS) (Gibco). Stable expression of the Gα15 transgene was maintained by further supplementing the growth medium with 700 μg ml^−1 geneticin (Gibco).
Transfections. For transient transfections with the Flag-CXCR4 WT and N-terminally mutated constructs, the CHO-K1 Gα15 stable cells were lifted using 0.25% (v/v) trypsin-EDTA (Gibco), and 2×10^6 cells were re-plated onto 10 cm culture dishes. […] The cells were transfected 24 hours later using the Mirus TransIT-CHO Transfection Kit according to the manufacturers protocol, with the following exceptions: the amount of CHO transfection reagent was scaled up to 4 μl μg^−1 of DNA in the transfection mixtures, and the amount of CHO mojo reagent was scaled up to 1 μl μg^−1 of DNA in the mixtures. […]
Calcium flux. […] Fluorescence was measured at 310 K using a FlexStation2 Microplate Reader with excitation and emission wavelengths at 485 nm and 515 nm, respectively. […] CXCR4 variants with EC50 or maximum calcium response values more than three standard deviations from the mean CXCR4WT quantities were deemed significant.

CXCR4 [1] = target: T2, CXCR4 (Homo sapiens, UniProt P61073); experiment: β-arrestin-2 recruitment BRET assay in HEK293 cells; type: cell-based; conditions: concentrations increased to 10 and 100 μM
T2 construct: purchased Millipore
T2 sequence (P61073 whole entry): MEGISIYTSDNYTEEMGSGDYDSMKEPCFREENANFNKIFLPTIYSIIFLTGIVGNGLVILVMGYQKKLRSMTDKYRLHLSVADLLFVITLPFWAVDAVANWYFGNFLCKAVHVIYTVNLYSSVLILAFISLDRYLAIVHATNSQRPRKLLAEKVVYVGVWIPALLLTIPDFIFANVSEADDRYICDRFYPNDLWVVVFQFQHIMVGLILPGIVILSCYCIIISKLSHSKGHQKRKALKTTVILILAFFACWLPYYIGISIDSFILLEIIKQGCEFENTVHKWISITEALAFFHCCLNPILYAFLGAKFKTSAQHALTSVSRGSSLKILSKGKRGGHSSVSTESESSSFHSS
Description: β-arrestin-2 recruitment. β-arrestin-2 recruitment was measured using an intermolecular BRET assay performed as described previously. HEK293E cells were cotransfected with […] of CXCR4-eYFP construct with […] of β-arrestin-2-RLuc (a gift from Michel Bouvier, University of Montreal, Montreal, QC, Canada). For [acceptor]/[donor]titrations […] of β-arrestin-2-RLuc were cotransfected with increasing amounts of the CXCR4-eYFP construct. All transfections were completed to 2 mg/well with empty vector. […] Cells were washed once with PBS, and the RLuc substrate coelenterazine-II (NanoLight Technology) was added at a final concentration of […] to BRET buffer (PBS, 0.5 mM MgCl2, 0.1% w/v glucose). β-arrestin recruitment was measured 30 min after ligand addition. […]
β-arrestin-2 recruitment. β-arrestin-2 recruitment was measured using an intermolecular BRET assay performed as described previously. […] The medium of the cells was then changed to BRET buffer (PBS, 0.5 mM MgC2, 0.1% (w/v) BSA). β-arrestin-2 recruitment was measured 15 min after ligand addition, and 10 min after the addition of the RLuc3 substrate coelenterazine400a (NanoLight Technology) at a final concentration of […]. […]

CXCL12WT dimerization = target: T3, CXCL12WT dimerization (Homo sapiens, UniProt P48061); experiment: Intrinsic tryptophan fluorescence polarization assay of CXCL12WT dimerization; type: binding; conditions: for ΔGdimer: 298 K
T3 construct: made in house
T3 sequence (P48061 22-89): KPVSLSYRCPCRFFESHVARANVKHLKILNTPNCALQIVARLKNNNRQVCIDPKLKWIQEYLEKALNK
Description: Fluorescence polarization assay. Fluorescence polarization (FP) assays were performed on a PTI spectrofluorometer equipped with automated polarizers, using a time base polarization method provided by the program Felix32. […] Experiments were performed in duplicate and the reported dimerization Kd values reflect the average of both experiments.

CXCR4 [2] = target: T2, CXCR4; experiment: Radioligand displacement of 125I-CXCL12 from CXCR4 membrane preparations; type: binding; conditions: relative to CXCL12WT
Description: Radioligand displacement. Commercial membrane preparations of cells stably expressing CXCR4 or CXCR7 were purchased (Millipore). Five micrograms of protein per point was incubated for 90 min on ice in binding buffer with 0.03 nM of […] as a tracer and increasing concentrations of competitor in a final 40 μL volume. Bound radioactivity was separated from free ligand by filtration, and receptor-bound radioactivity was quantified by gamma-radiation counting (Perkin-ECXCL121er Life and Analytical Sciences). Isolated membrane binding experiments were carried out in duplicate.

T1 sequence (P61073 whole entry Y12A): as the sequence (P61073 whole entry) above, with Y12A counted along it

reduction of potency (calcium response) (CXCR4(Y12A)) | ΔGdimer (CXCL12WT dimerization; pathway 1: dimerization after sTyr21 sulfopeptide binding) | ΔGdimer (CXCL12WT dimerization; pathway 2: dimerization before sulfopeptide binding) | Kd (CXCL12WT dimerization; read-out: Kd for CXCL12WT dimerization, in the presence of 50 mM sulfotyrosine) | recognition of the full-length receptor in comparison to CXCL12WT (CXCR4 [2]) | Substance | shape of β-arrestin-2 recruitment dose response (CXCR4 [1])
3 fold | −3.5 kcal mol^− | −2.5 kcal mol^− | 9.3 ± 1.8 mM |  | CXCL12WT: wild type CXCL12 (stromal cell-derived factor-1/SDF-1), SEQ ID NO:1 | bimodal recruitment; also recorded: bimodal stimulation
 |  |  |  | six-times weaker | CXCL122: constitutively dimeric variant of CXCL12 containing L36C/A65C mutations | 
